Source: patent US9309315B2, “Therapy with CD4 binding peptides and radiation” (GENMAB A/S, priority 2005, dated 2016)

Legend:
Type in all cases: cell-based, human
[1] = tested on: Dok-1; assay: SH2-precipitation (SH2C-RasGAP-GST) and Dok-1 blot of lysates from CD4+ T cells incubated with zanolimumab; conditions: SH2-precipitate; for amount of precipitated Dok-1 after inhibitor pre-treatment: cells pre-incubated with inhibitor before zanolimumab exposure, FIG. 3D
Method: (§1) FIG. 3 illustrates results from CD4^+ T cells incubated with zanolimumab or a human immunoglobulin negative control. Cell lysates were CD4-precipitated (A), SH2-precipitated (B, D) or used as whole lysate (C). FIG. 3A: Two CD4-precipitates were submitted to a kinase assay (upper two panels). Blots were probed with antibodies to p56^Ick (top panel), the p56^Ick substrate α-casein (second panel), Y-394 phosphorylated p56^Ick (third panel), p56^Ick (fourth panel) or CD4 (bottom panel). The numbers below the blots represent densitometric values normalized for p56^Ick loading. FIG. 3B: Blots with SH2-precipitate were incubated with antibodies to Dok-1 (top panel) or GST (bottom panel). The numbers below the blots represent densitometric values normalized for GST loading. FIG. 3C: Proteins in whole cell lysate were separated by SDS-PAGE and blotted. Membranes were incubated with antibodies to phosphorylated SHIP-1 (top panel) or SHIP-1 regardless of phosphorylation status (bottom panel). The numbers below the blots represent densitometric values normalized for SHIP-1 loading. FIG. 3D: Before zanolimumab exposure, cells were pre-incubated with Src kinase inhibitors PP2 or damnacanthal (DAM). Blots were incubated with antibodies for Dok-1 (top panel) or GST (bottom panel). The numbers below the blots represent densitometric values normalized for GST loading. Results for the experiments shown here are representative of 4 independent experiments.
The activation of inhibitory adaptor molecules in T cells presented in FIG. 3 were obtained with CD4^+ T cells isolated as described in example 1. CD4^+ T cells (3×10E7 cells) were incubated with zanolimumab and, when appropriate, pre-incubated with Src kinase inhibitors PP2 or damnacanthal (Merck Biosciences, Nottingham, UK) before exposure to zanolimumab. Cell lysates were incubated with CD4-precipitating antibody and antibody-bound proteins were precipitated with protein-G sepharose. […] Proteins were detected with an HRP-conjugated secondary antibody, visualized by ECL and quantified using a phosphor-imager.

[2] = tested on: SHIP-1; assay: Whole cell lysate blot for phosphorylated SHIP-1 in CD4+ T cells incubated with zanolimumab; conditions: FIG. 3C
Method: as §1, with “FIG. 3D: Before zanolimumab exposure, cells were pre-incubated with Src kinase inhibitors PP2 or damnacanthal (DAM). Blots were incubated with antibodies for Dok-1 (top panel) or GST (bottom panel). The numbers below the blots represent densitometric values normalized for GST loading. Results for the experiments shown here are representative of 4 independent experiments.” left out
The activation of inhibitory adaptor molecules in T cells presented in FIG. 3 were obtained with CD4^+ T cells isolated as described in example 1. […] Proteins were detected with an HRP-conjugated secondary antibody, visualized by ECL and quantified using a phosphor-imager.

[3] = tested on: CD4^+ T cells; assay: Western blotting of T-cell signaling molecules in CD4+ T cells incubated with zanolimumab and stimulated with immobilized CD3 monoclonal antibody (OKT3)
Method: FIG. 2 illustrates results of Western blotting of cell lysates prepared from CD4^+ T cells stimulated with CD3 monoclonal antibody and zanolimumab. CD4^+ T cells were incubated with HuMax-CD4 and then stimulated with CD3 monoclonal antibody (OKT3) immobilized onto latex beads. Proteins in duplicate cell lysate samples were separated by 7-15% gradient gel SDS-PAGE and were transferred onto blotting membranes by electrophoresis. One membrane was incubated with a phosphotyrosine specific antibody, stripped and then re-probed with TCRζ and LAT specific antibodies (FIG. 2A). The other was incubated with antibodies to the phosphorylated form of specific proteins, stripped and then re-probed with ZAP-70 (2B), Erk1/2, p38 and AKT antibodies (2C). The numbers below the blots represent densitometric values normalized for loading relative to values observed after 2 min of CD3-stimulation in the absence of HuMax-CD4. Results for the experiments shown here are representative of 4 independent experiments.
The effect on T-cell signaling molecules upon T-cell activation presented in FIG. 2 were obtained with CD4^+ T cells isolated from peripheral blood from healthy donors. CD4^+ T cells were isolated using enrichment RosetteSep cocktail (Stemcell Technologies Inc, Canada) and separated by lymphoprep (Axis Shield, Poc AS, Norway) density centrifugation. CD4^+ T cells (10^7 cells) were incubated with zanolimumab and then stimulated with CD3 monoclonal antibody (OKT3, available from Orthoclone, Pharmacy, UMC, Utrecht) immobilized onto latex beads. Cell were lysed using lysis buffer (1% Nonidet P-40, 20 mM Tris-HCl, pH 7.4, 150 mM NaCl, 2 mM EGTA, 1 mM Na3VO4, 10 mM NaF, 10 mM sodium pyrophosphate and protease inhibitors (Roche Molecular Biochemicals, Sussex, UK)). Proteins in duplicate cell lysate samples were separated by 7-15% gradient gel SDS-PAGE and transferred onto blotting membranes by electrophoresis. Membranes were incubated with antibodies for specific tyrosine-phosphorylated proteins, stripped and then re-probed with antibodies recognizing the specific proteins regardless of their phosphorylation status. Proteins were detected with an HRP-conjugated secondary antibody, visualized by ECL and quantified using a phosphor-imager.

Question: For COc1c(C=O)c(O)cc2c1C(=O)c1ccccc1C2=O [damnacanthal], which “amount of precipitated Dok-1 after inhibitor pre-treatment” value [1] is on record?
Answer: reduced amount of precipitated Dok-1

Question: CC(C)(C)n1nc(-c2ccc(Cl)cc2)c2c(N)ncnc21 [PP2] was tested. Which “amount of precipitated Dok-1 after inhibitor pre-treatment” value [1] did it give?
Answer: reduced amount of precipitated Dok-1

B1: zanolimumab (antibody, listed as Homo sapiens, V domains shown)
VH: QVQLQQWGAGLLKPSETLSLTCAVYGGSFSGYYWSWIRQPPGKGLEWIGEINHSGSTNYNPSLKSRVTISVDTSKNQFSLKLSSVTAADTAVYYCARVINWFDPWGQGTLVT
VL: DIQMTQSPSSVSASVGDRVTITCRASQDISSWLAWYQHKPGKAPKLLIYAASSLQSGVPSRFSGSGSGTDFTLTISSLQPEDFATYYCQQANSFPYTFGQGTKLEIK
modifications: anti CD4 Vh; anti CD4 VL
notes: anti-CD4 monoclonal human antibody (GenMab, Denmark), same as 6G5 of WO97/13852
Question: B1 was tested. Which “phosphorylation of SHIP-1” value [2] did it give?
Answer: induces phosphorylation

Question: What about the “tyrosine-phosphorylation of intracellular proteins following TCR stimulation” value ([3]; TCR stimulation via immobilized CD3 monoclonal antibody, FIG. 2A) of the same molecule?
Answer: generalized inhibition

Question: And the “phosphorylation of LAT (36-38 kDa)” value ([3]; after CD3 stimulation, FIG. 2A)?
Answer: inhibited

Question: And the “phosphorylation of p21 and p23 phosphorylated isomers of the TCR-ζ chain” value ([3]; after CD3 stimulation, FIG. 2A)?
Answer: markedly inhibited

Question: What about the “phosphorylation of ZAP-70” value ([3]; after CD3 stimulation, FIG. 2B) of the same molecule?
Answer: inhibition

Question: What about the “AKT/PKB downstream signaling pathway” value ([3]; after CD3 stimulation, FIG. 2C) of the same molecule?
Answer: inhibits

Question: And the “Erk1/2 downstream signaling pathway” value ([3]; after CD3 stimulation, FIG. 2C)?
Answer: inhibits

Question: And the “p38 serine/threonine downstream signaling pathway” value ([3]; after CD3 stimulation, FIG. 2C)?
Answer: inhibits

Question: And the “inhibition of the very earliest T-cell activation events” value ([3]; summary of Example 1, densitometry relative to CD3 stimulation without antibody)?
Answer: about 50%

Question: What about the “phosphorylation of Dok-1” value ([1]; FIG. 3B) of the same molecule?
Answer: induces phosphorylation
